# Measured values published in paper PMC4498904, “Mutagenesis Study Reveals the Rim of Catalytic Entry Site of HDAC4 and -5 as the Major Binding Surface of SMRT Corepressor” (PLoS ONE, 2015).
# B1: KGC-HDAC4c (C-terminal portion of Kusabira Green protein fused with HDAC4c), wild type [human] / KGN-SRD3c (N-terminal portion of Kusabira Green protein fused with SRD3c) [human] (parent)
# chain 1: PRFTTGLVYDTLMLKHQCTCGSSSSHPEHAGRIQSIWSRLQETGLRGKCECIRGRKATLEELQTVHSEAHTLLYGTNPLNRQKLDSKKLLGSLASVFVRLPCGGVGVDSDTIWNEVHSAGAARLAVGCVVELVFKVATGELKNGFAVVRPPGHHAEESTPMGFCYFNSVAVAAKLLQQRLSVSKILIVDWDVHHGNGTQQAFYSDPSVLYMSLHRYDDGNFFPGSGAPDEVGTGPGVGFNVNMAFTGGLDPPMGDAEYLAAFRTVVMPIASEFAPDVVLVSSGFDAVEGHPTPLGGYNLSARCFGYLTKQLMGLAGGRIVLALEGGHDLTAICDASEACVSALLGNELDPLPEKVLQQRPNANAVRSMEKVMEIHSKYWRCLQRTTSTAGRSLIEAQTCENEEAET
# chain 2: EGGMSVTQCSKEDGRSSSGPPHETAAPKRTYDMMEGRVGRAISSASIEGLMGRAIPPERHSPHHLKEQHHIRGSITQGIPRSYVEAQEDYLRREAKLLKREGTPPPPPPSRDLTEAYKTQALGPLKLKPAHEGLVATVKEAGRSIHEIPREELRHTPELPLAPRPLKEGSITQGTPLKYDTGASTTGSKKHDVRSLIGSPGRTFPPVHPLDVMADARALERACY
# B2: KGC-HDAC5c (C-terminal portion of Kusabira Green protein fused with HDAC5c), wild type [human] / KGN-SRD3c (N-terminal portion of Kusabira Green protein fused with SRD3c) [human] (parent)
# chain 1: LFTTGVVYDTFMLKHQCMCGNTHVHPEHAGRIQSIWSRLQETGLLSKCERIRGRKATLDEIQTVHSEYHTLLYGTSPLNRQKLDSKKLLGPISQKMYAVLPCGGIGVDSDTVWNEMHSSSAVRMAVGCLLELAFKVAAGELKNGFAIIRPPGHHAEESTAMGFCFFNSVAITAKLLQQKLNVGKVLIVDWDIHHGNGTQQAFYNDPSVLYISLHRYDNGNFFPGSGAPEEVGGGPGVGYNVNVAWTGGVDPPIGDVEYLTAFRTVVMPIAHEFSPDVVLVSAGFDAVEGHLSPLGGYSVTARCFGHLTRQLMTLAGGRVVLALEGGHDLTAICDASEACVSALLSVELQPLDEAVLQQKPNINAVATLEKVIEIQSKHWSCVQKFAAGLGRSLREAQAGETEEAETVS
# chain 2: B1 chain 2
# Variants of: B1
# Experiment: BiFC assay (fluorescence spectrophotometer)
# Details: HEK293 cells, KGN-SRD3c (1 μg) and KGC-HDAC4c mutant (1 μg), 48 hours of transfection, whole cell lysates, parent: 8, read off a plot
row,Variant,response [RFU]
1,chain 1 C102Y,4.5
2,chain 1 C20Y,4.1

# Further lines, results first:
row,response [RFU],Variant
1,4.3,chain 1 H193L
2,5,chain 1 C18Y

# Variants of: B2
# Experiment: BiFC assay (fluorescence spectrophotometer)
# Details: HEK293 cells, KGN-SRD3c (1 μg) and KGC-HDAC5c mutant (1 μg), 48 hours of transfection, whole cell lysates, parent: 9.3, read off a plot
row,response [RFU],Variant
1,4.7,chain 1 C102Y
2,4.4,chain 1 C17W
3,4,chain 1 H193R
